# The DeepSol protein solubility set
# Experiment: soluble on expression in E. coli; label from the status in PepcDB or PDB records
row,Sequence,soluble on expression in E. coli
1,MSTAYEVQCRGLPWEATEQELRDFFGNNGIESLEIPRRNGRTSGDAKVVFTNEEDYNNALKKDREHLGSRYIEVFPAGGAPTRRGDRGERGDRGDRDHYRSRGAPPRDRYSDRGGPRSSGPDSIVRLRGLPFSVTSRDISDFLAPLPIVRDGILLPDQQRARPGGEAYVCFETMESVQIAKQRHMKNIGHRYIEVFEATHRDLSRFAEENDLRVPRFGPPPFASAPQTAPRGAYDPYSQPTDPYRNATDYRRAAEPEDPYARSRAPSVQDYGVRASYDPYTQPAAPVSSYPSQQQPSAGYYDNYAPKTAYESYGRERGPDPRDVRDPRDSRMPDPRDSRALSDPYAAESRYSEYGYESREPYWRGGSGGPPSIGGGVGGGGAPLAPTGRDPYSVGESWANGAGGPGGPPPVSSDRDRYGSGGYASEPYAQREAGGAMRRSEYGRPDDRYSKPEPYGYSRDRDYGAPQNQHFVLRMRGVPFRASEADVYDFFHPIRPNQVELLRDHQFQRPSGDARVIFYNRKDYDDALMKDKQYMGERYIEMIPDNGRY,not soluble
2,LLEQESLPATGELYEHAACGLLVTLPNGTIERANLTFCRWLGLEREAVIGRRFQDLLNLAGKVFLQTHWAPLLQTQGSIAEVKVELIHADGRSVPMMLNAIRREYPSGFLHEVAVFLAEE,not soluble
3,GSHMTAEADTSSELAKKSKEVFRKEMSQFIVQCLNPYRKPDCKVGRITTTEDFKHLARKLTHGVMNKELKYCKNPEDLECNENVKHKTKEYIKKYMQKFGAVYKPKEDTELE,soluble
4,SNAMQIVKKEKFILKEYTFENGRTIPVQMGYETYGTLNRERSNVILICHYFSATSHAAGKYTAHDEESGWWDGLIGPGKAIDTNQYFVICTDNLCNVQVKNPHVITTGPKSINPKTGDEYAMDFPVFTFLDVARMQCELIKDMGIARLHAVMGPSAGGMIAQQWAVHYPHMVERMIGVITNPQNPIITSVNVAQNAIEAIRLDPSWKGGKYGEEQPMKGLQLANRMMFMNAFDEHFYETTYPRNSIEVEPYEKVSSLTSFEKEINKLTYRSIELVDANSWMYTAKAVLLHDIAHGFSSLEEALSNVEANVLMIPCKQDLLQPSRYNYKMVDLLQKQGKYAEVYEIESINGHMAGVFDIHLFEKKVYEFLNRKVSSFV,soluble
5,MKGTQMLALNKKCWDIVAPYFFQVDCLPKYGPYTASEDEIHLFDSIKGKKVLDIGCGSGHSLQYMAEHGAEELWGLDLSSTQIETAHETLQSWNPKLICGAMEEERDIPKGYFDIVYSIYALGWTSDLRKTLELIYSYVKPGGSFIFSWEHPVYSNLMYGTEEIAFSSSYHEETPITFETFKGEDVQATLYKRKMSTYINELNRVGFTIERIEEPEPSSSFDEKLAEPSTKYYSLHKARMVPTTFIIKARKLEHHHHHH,soluble
6,MGSDKIHHHHHHMMEMVNNSFRHGILFQEGKMEEARFIERPNRFTVRCALGSEILDAYLPNPGRLWELLLPDSVLYVVRRDVGQDRKLRGVVVAVEREGRPVMLHTLACNDIVADLLRQKRLPGFEGMNILQREIARGRSRFDFLLEQNGAPRLLEVKSCTLFGRCIAMFPDAVTLRGRRHLLELAELSRQGTPAHVLFLVHWPHADFFLPDYHTDFDFASTFLAVRDAVRFSALAVDWQPDMTPGAEIRELYIPWELLEREVQDSGCYLLVLHLPRNENVIPGGSTLLSLRKGYYVTVVSIRSGLTRHLQKSSRRRPGSENSRKSTVPDNLKAAADKILAIPIRTTEPLEAELNDALSRIADWSVPGFEARGDAGLAPVFGMAGPPLQRRAFVELLLDFRINRLEKFLARGAGSSAGPPVGNPSLEKIQ,not soluble
7,AIAVEVESDSVAERDRSSFLAGHDAIRLAKSCVDSPPERWYAALYQVYADLTKLRCWSNVEVVYSDSATFPTGLLGPLFEEDSMVQELHSAQCILGSERACFHVRCCIVGSPPSGRAINALSPQSETRTEERIITSRREPEVVIAVPMHAMLKLSNLDQALRMSSHIEGIVKNRHVADSSASTHSTDRQAGSRKSSVIFGFVDEDTTTAYYRIREGACESNDRREFSTDDIASCLAQERT,soluble
8,MACPEATFFHRAGWKQVIEQAFGHKTWFLYIEEGGCIQGVLPLAEIDSLLFGHSLSALPFCVYGGIAAISDDARIRLDQAAQMLATYLKVDYLEYRHLHPFHHDWPTKDLYVTFRKTMDSDVEQNMLAIPRKQRAMVRKGMKYELQSYLDQDTDHFFRAYSASVHRLGTPVFSRKYFRLLKSVFAEDCELLIITKDENVVSAVMSFYFRDEVLPYYGGGTDAARDLAGNDFMYWELMRRACERGYRVFDFGRSKRGTGSYSFKKNWGFEPQPLFYEYQLHQAKTIPEHNPLNPKYQLFIKAWQKMPLALANMLGPHIVKNLG,not soluble
